From patent US20100093076A1, “SOLUBLE IL-27 RECEPTOR” (priority 2006, published 2010)
Where “and” joins values, the source holds several entries; their conditions need not be identical. Equal entries are not always repeated.

How the values were obtained:
[1] = biological target: T1, mouse ligand (single-chain IL27: EBI3 linked to IL-27 p28) (Mus musculus, UniProt O35228+Q8K3I6); assay: Surface plasmon resonance (BIACORE 3000) kinetic rate and affinity constants; format: binding; conditions: SPR
T1 construct: purchased R&D Systems
T1 sequence (O35228+Q8K3I6 with tags, fused parts or gaps): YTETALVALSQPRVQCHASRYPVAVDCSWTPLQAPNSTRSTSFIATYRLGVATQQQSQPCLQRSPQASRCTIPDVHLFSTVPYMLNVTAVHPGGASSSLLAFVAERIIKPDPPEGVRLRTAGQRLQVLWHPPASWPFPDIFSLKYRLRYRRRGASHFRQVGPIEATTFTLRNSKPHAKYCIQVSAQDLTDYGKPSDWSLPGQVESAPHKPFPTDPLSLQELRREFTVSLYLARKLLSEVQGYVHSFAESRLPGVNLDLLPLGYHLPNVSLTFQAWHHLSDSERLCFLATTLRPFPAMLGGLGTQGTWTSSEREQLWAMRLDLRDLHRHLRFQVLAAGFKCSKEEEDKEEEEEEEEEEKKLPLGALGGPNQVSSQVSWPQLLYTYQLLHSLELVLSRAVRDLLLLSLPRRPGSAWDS
Procedure: Kinetic rate and affinity constant values for the mouse (IL27RAm(mFc1), Example 1) and human (IL27RA-Fc5, Example 2) soluble receptors were obtained by surface plasmon resonance (SPR) using an automated instrument (BIACORE 3000; Biacore International AB, Uppsala, Sweden). The mouse soluble receptor was tested against mouse ligand (lot A1418F), and the human soluble receptor was tested against both mouse (A1426F) and human (A1534F) ligands. For determination of the kinetic rate constants for the receptor-ligand interactions, the gp130 molecule was not included as part of the receptor complex.
The IL27 ligands used in this study were single-chain molecules comprising EBI3 connected by its C-terminus to the N-terminus of IL-27 p28 via a polypeptide linker. (R&D Systems) Each of the ligands included an amino-terminal peptide tag.
For the mouse IL27RA study, the soluble receptor was captured onto the chip surface by an isotype-specific anti-mouse Fc antibody (obtained from Jackson ImmunoResearch Laboratories, Inc., West Grove, Pa.) covalently immobilized to the chip (BIACORE CM5 chip) using the standard amine coupling protocol specified by the instrument manufacturer. For the human IL27RA studies, the soluble receptor was directly and covalently immobilized to the chip via the amine coupling protocol. In all studies, ligand was injected over the active (receptor-bound) surface at varying concentrations to obtain a series of binding curves.
Experimental conditions were optimized for determination of kinetic rate constant values. The molecular densities of the soluble receptor protein loaded onto the chip surface were targeted to obtain maximum IL27 binding levels (Rmax) of ≦20 RU. The analyte (ligand) was injected over the receptor surface at a flow rate of […] at a concentration range of approximately 0.05 to 10 nM, allowing for an association phase of 3 minutes and a dissociation phase of 10 minutes. […]
All data were assessed using software provided with the instrument (BIACORE Evaluation software v. 3.2). […]

single-chain mouse IL-27 = biological target: T2, single-chain mouse IL-27 (Mus musculus, UniProt O35228+Q8K3I6); assay: IL-27 inhibition of IL-2 production neutralized by IL-27RA Fc (third set of experiments); format: cell-based; conditions: + IL-27 (10 ng/ml)
T2 sequence (O35228+Q8K3I6 with tags, fused parts or gaps): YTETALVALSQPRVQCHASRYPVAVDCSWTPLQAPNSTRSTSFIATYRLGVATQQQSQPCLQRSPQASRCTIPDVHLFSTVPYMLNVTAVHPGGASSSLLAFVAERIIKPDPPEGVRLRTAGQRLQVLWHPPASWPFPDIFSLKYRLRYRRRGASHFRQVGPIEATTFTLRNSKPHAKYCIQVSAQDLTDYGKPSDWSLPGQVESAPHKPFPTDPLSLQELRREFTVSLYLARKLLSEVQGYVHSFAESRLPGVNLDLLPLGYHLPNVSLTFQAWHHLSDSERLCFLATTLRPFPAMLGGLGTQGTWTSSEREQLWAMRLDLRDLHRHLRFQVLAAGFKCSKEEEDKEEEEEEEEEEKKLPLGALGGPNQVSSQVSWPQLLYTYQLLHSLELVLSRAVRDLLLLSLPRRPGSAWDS
Procedure: Naïve mouse CD4 T-cells were isolated as described above. For testing of the neutralizing mAbs, the naïve CD4 T cells were preincubated for 30 minutes at 37 degrees C. with graded concentrations (60, 30, 15, 7.5, 3.75, 1.875.micro.g/ml) of either neutralizing rat anti-mouse IL27RA mAb (each mAb tested separately), rat IgG1 isotype control mAb, rat IgG2a isotype control mAb, or no mAb. […] The CD4 T cells (4×10^5/well) were then transferred to anti-CD3 coated tissue culture plates. Single-chain mouse IL-27 (10 ng/ml) was then added to the plates. Duplicate plates were set up for all experimental conditions. The plates were then cultured at 37 degrees for up to 72 hours.
For testing of the soluble receptor, single-chain mouse IL-27 (10 ng/ml) was preincubated for 30 minutes at 37 degrees C. with either IL27RAm(mFc1) (10.0 and 5.0.micro.g/ml), IL27RA-Fc5, mouse Fc1 protein (10.0 and 5.0.micro.g/ml), human Fc5 protein (10.0 and 5.0.micro.g/ml), or no recombinant protein in wells of the anti-CD3 coated plates. 4×10^5 CD4^+ CD62L high cells were added to the wells. Duplicate plates were set up for all experimental conditions. The plates were then cultured at 37 degrees for up to 72 hours. Cell supernatants were collected from one set of plates at 48 hours and from the duplicate set of plates at 72 hours. The supernatants were stored frozen at −80° C.

B1: IL-27RAm(mFc1): Extracellular domain of mouse IL27RA fused to a wild type BALB/c mouse gamma2a constant region Fc tag (protein)
chain: MNRLERVALARLETPRLEGLLELELESLEMSLELELEGTRPRHGSPRGPRLEQCYSVGPRLEGILENCSWGLPRLEGDLEGLTPRPRVLEYHQSQKYHPRNRVWGLVKVPRSKQSWVTIPRRGLQFTMADKLELEIWGTQKGRPRLEWSSVSVASNLEGLTQMKPRDTPRQIFSQVASPISGLGLATLEGLATVQWAPRPRVWPRPRQKALETCQFRYKGLCQAGLAWTRLEGLPRQLEKTDGLETPRVGLMQNLEGLPRGTCYQVSGRCQVGLNGYPRWGGLWSSPRLESFQTPRFLEDPRGLDVWVSGTVCGLTSGKRAALELEVWKDPRRPRCVQVTYTVWFGAGDITTTQGLGLVPRCCKSPRVPRAWMGLWAVVSPRGNSTSWVPRPRTNLESLEVCLEAPRGLSAPRCDVGVSSADGSPRGIKVTWKQGTARGSPRLEGLYVVASPWAQDGDSLEDKLENWTRLEPRPRGNLESTLELEPRGGLFKGGVPRYRITVTAVYSGGLEAAAPRSVWGFRGLGLLEVPRLEAGPRAVWRLEPRDDPRPRGTPRVVALAWGGLVPRRHQLERGQATHYTFCIQSRGLESTVCRNVSSQTQTATLEPRNLEHSGSFKLEWVTVSTVALAGQGPRPRGPRDLESLEHLEPRDNRIRWKALEPRWFLESLEWGLELELEMGCGLESLEASTRCLEQARCLEHWRHKLELEPRQWIWGLRVPRDPRANSNSGQPRYIKGLVSLEPRQPRPRKDGPRILEGLVGLGLVGLLEQPRVVGLSPRKASAPRIYSGYGLKHFLEPRTPRGLGLLEGLELEV
modifications: left off: a dimerising Fc or GST
notes: Extracellular domain of mouse IL27RA fused to a wild type BALB/c mouse gamma2a constant region Fc tag
Which ka ([1]; 1:1 binding model) does the source give for B1 here?
Its ka is 1e+07 M⁻¹ s⁻¹.

And the kd ([1]; 1:1 binding model)?
The kd was 0.0012 s⁻¹.

What about the Kd ([1]; Kd=kd/ka) of the same molecule?
The Kd was 0.12 nM.

And the IL-2 concentration (single-chain mouse IL-27; 48 hr, protein conc. 5 (μg/ml; Fc controls in molar equiv.))?
The IL-2 concentration was 4021.15 pg/mL.

And the IL-2 concentration (single-chain mouse IL-27; 48 hr, protein conc. 10 (μg/ml; Fc controls in molar equiv.), listed as mIL-27RA)?
Its IL-2 concentration is 5215.59 pg/mL and 4922.26 pg/mL.

What about the IL-2 concentration (single-chain mouse IL-27; 72 hr, protein conc. 5 (μg/ml; Fc controls in molar equiv.)) of the same molecule?
The IL-2 concentration was 5744.95 pg/mL.

And the IL-2 concentration (single-chain mouse IL-27; 72 hr, protein conc. 10 (μg/ml; Fc controls in molar equiv.), listed as mIL-27RA)?
The IL-2 concentration was 6704.62 pg/mL and 12186.7 pg/mL.
